According to patent US20110256153A1 (IMMUNOGEN, published 2011):
Positions count from the first letter of the chain named. Where “and” joins values, the source holds several entries; their conditions need not be identical. Equal values may be shown once.

Key:
human CD37 [1] = biological target: T1, human CD37 (human, UniProt P11049 1-278); assay: cell-based or functional assay
T1 sequence: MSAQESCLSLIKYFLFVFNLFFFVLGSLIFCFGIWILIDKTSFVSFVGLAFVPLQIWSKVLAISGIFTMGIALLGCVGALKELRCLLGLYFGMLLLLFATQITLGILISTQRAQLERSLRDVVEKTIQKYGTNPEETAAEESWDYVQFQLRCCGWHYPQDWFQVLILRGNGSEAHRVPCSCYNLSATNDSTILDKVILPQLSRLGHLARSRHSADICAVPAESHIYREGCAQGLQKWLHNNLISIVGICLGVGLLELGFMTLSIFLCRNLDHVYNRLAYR

human CD37 [2] = biological target: T1, human CD37; assay: flow cytometry titration; apparent Kd; cells not named
human CD37 [3] = biological target: T1, human CD37; assay: flow cytometry titration on BJAB cells; apparent Kd
Procedure: (§1) Binding specificity was tested by flow cytometry using purified antibodies. […] All murine antibodies were incubated for 3 h with either CD37-expressing 300-19 cells or the non-transfected 300-19 cells (1×10⁵ cells per sample) in 100 μL FACS buffer (RPMI-1640 medium supplemented with 2% normal goat serum). Then, the cells were pelleted, washed, and incubated for 1 h with 100 μL of FITC-conjugated goat anti-mouse IgG-antibody (Jackson Laboratory, 6 μg/mL in FACS buffer). The cells were pelleted again, washed with FACS buffer and resuspended in 200 μL of PBS containing 1% formaldehyde. Samples were acquired using a FACSCalibur flow cytometer with the HTS multiwell sampler or a FACS array flow cytometer and analyzed using CellQuest Pro (all from BD Biosciences, San Diego, US).
The humanized antibodies huCD37-38, huCD37-50, huCD37-51, huCD37-56 and chCD37-57 were assayed for their binding affinity to BJAB cells in comparison to their murine counterparts. Flow cytometry binding assays were carried out using secondary FITC-conjugated goat-anti-murine and -anti-human antibodies, analyzed as described in Example 2 and dose-response curves were generated by non-linear regression for each antibody. The value for the apparent dissociation constant (Kd) of each antibody was calculated using GraphPad Prism v4 (GraphPad software, San Diego, Calif.).

macaque CD37 [4] = biological target: T2, macaque CD37 (macaque, UniProt P11049 1-277 (human entry)); assay: flow cytometry titration on 300-19/CD37mac cells; apparent Kd
T2 construct: Expressed on 300-19 cells transfected with pSRa-CD37mac (300-19/CD37mac cells); also called macaca CD37; macaque derived CD37 antigen
T2 chain: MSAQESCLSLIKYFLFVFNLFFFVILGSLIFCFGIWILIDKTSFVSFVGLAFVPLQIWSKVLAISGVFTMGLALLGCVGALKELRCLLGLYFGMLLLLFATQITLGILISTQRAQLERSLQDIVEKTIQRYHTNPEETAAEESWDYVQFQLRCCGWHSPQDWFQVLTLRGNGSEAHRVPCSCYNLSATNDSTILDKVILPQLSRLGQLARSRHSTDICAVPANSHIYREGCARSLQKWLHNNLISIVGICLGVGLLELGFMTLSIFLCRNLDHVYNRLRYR
Procedure: as §1
Flow cytometry binding assays were carried out using secondary FITC-conjugated goat-anti-human antibodies, analyzed as described in Example 2 and dose-response curves were generated by non-linear regression for each antibody. The value for the apparent dissociation constant (Kd) of each antibody was calculated using GraphPad Prism v4 (GraphPad software, San Diego, Calif.).

hCD37-M1 = biological target: T3, hCD37-M1 (human/murine chimera, UniProt P11049 1-281); assay: flow cytometry, 300-19 cells expressing hCD37-M1, 1.5 µg/mL antibody
T3 construct: stably expressed on 300-19 cells; also called hCD37-M1 variant
T3 chain: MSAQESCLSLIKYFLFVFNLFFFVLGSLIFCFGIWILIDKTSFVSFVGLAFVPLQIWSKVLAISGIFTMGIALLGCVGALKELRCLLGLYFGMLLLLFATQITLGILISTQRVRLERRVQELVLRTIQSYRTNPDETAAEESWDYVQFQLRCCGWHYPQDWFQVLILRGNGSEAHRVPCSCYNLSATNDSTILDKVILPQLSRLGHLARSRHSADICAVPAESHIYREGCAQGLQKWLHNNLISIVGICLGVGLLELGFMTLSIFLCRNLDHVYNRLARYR
Procedure: as §1
(§2) Binding of various CD37 antibodies to cells expressing human CD37 wildtype and variants was analyzed by flow cytometry using 1.5 μg/mL of each antibody. The isolated antibodies of this invention were compared to commercially available CD37 antibody WR17, as well as the TRU-016 SMIP. […] Likewise, all antibodies tested bound the hCD37-M3 variant (FIG. 18B). In contrast, the isolated antibodies of this invention bound the hCD37-M1 variant, while TRU-016 and WR17 were unable to bind hCD37-M1 variant (FIG. 19A). The CD37-50 and CD37-51 antibodies and TRU-016 were also able to bind the hCD37-M45 variant. […] In contrast, the CD37-3, CD37-12, CD37-38, CD37-56 and CD37-57 antibodies require at least one of the AA residues in the hCD37-M45 variant that were changed to the corresponding murine AA residues for binding to the CD37 antigen.

macaque CD37 [5] = biological target: T2, macaque CD37; assay: flow cytometry, 300-19/CD37mac cells
Procedure: as §1
The murine antibodies muCD37-3, muCD37-12, muCD37-38, […], muCD37-51, muCD37-56 and muCD37-57 were assayed for their ability to bind to 300-19/CD37mac cells expressing macaque CD37. Flow cytometry binding assays were carried out using secondary FITC-conjugated goat-anti-murine or goat-anti-human antibodies, analyzed as described in Example 2. Binding was compared to the previously described anti-CD37 antibody WR17 and the anti-CD37 SMIP TRU-016. […] In contrast, muCD37-3, muCD37-12, the previously described anti-CD37 antibody WR17 and the anti-CD37 SMIP TRU-016 are unable to bind the macaque derived CD37 antigen.

hCD37-M45 = biological target: T4, hCD37-M45 (human/murine chimera, UniProt P11049 1-281); assay: flow cytometry, 300-19 cells expressing hCD37-M45
T4 construct: stably expressed on 300-19 cells; also called hCD37-M45 variant
T4 chain: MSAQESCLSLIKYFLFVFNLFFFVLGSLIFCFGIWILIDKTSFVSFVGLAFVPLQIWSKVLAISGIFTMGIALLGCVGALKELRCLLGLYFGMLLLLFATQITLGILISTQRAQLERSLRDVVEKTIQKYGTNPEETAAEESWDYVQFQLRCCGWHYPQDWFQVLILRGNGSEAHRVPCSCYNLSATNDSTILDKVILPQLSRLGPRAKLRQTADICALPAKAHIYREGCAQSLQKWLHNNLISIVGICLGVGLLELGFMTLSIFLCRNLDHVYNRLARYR
Procedure: as §1, §2

hCD37-M3 = biological target: T5, hCD37-M3 (human/murine chimera, UniProt P11049 1-281); assay: flow cytometry, 300-19 cells expressing hCD37-M3, 1.5 µg/mL antibody
T5 construct: stably expressed on 300-19 cells; also called hCD37-M3 variant
T5 chain: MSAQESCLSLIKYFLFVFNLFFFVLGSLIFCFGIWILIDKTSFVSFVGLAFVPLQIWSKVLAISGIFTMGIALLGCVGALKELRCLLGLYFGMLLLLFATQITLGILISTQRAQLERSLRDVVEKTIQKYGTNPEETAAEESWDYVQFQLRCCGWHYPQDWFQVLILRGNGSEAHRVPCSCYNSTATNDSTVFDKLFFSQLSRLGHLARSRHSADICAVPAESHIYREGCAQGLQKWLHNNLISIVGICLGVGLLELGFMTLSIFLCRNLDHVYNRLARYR
Procedure: as §1, §2

B1: huCD37-50-SMCC-DM1 (antibody, human IgG1, kappa, V domains shown)
VH: QVQLQESGPGLLKPSQSLSLTCTVSGYSITSGFAWHWIRQHPGNKLEWMGYILYSGSTVYSPSLKSRISITRDTSKNHFFLQLNSVTAADTATYYCARGYYGYGAWFAYWGQGTLVTVSA
VL: EIVLTQSPATMSASPGERVTMTCSATSSVTYMHWYQQKPGQSPKRWIYDTSNLPYGVPARFSGSGSGTSYSLTISSMEAEDAATYYCQQWSDNPPTFGQGTKLEIKR
modifications: DM1 attached through SMCC linker; attachment residues and load not stated
notes: SMCC-DM1 conjugate of huCD37-50
EC50 of in vitro cytotoxicity, WST-8 assay, Daudi cells (human CD37 [1]): 0.13 nM
EC50 of in vitro cytotoxicity, WST-8 assay, Granta-519 cells (human CD37 [1]): 0.12 nM
Kd (human CD37 [2]): 0.7 nM

B2: huCD37-51-SMCC-DM1 (antibody, human IgG1, kappa, V domains shown)
VH: EVQLVESGPEVLKPGESLSLTCTVSGYSISSGFAWHWIRQFPGKGLEWMGYIHYSGSTNYSPSLQGRISITRDSSINQFFLQLNSVTASDTATYYCARGYYGFGAWFVYWGQGTLVTVSA
VL: B1 VL with N52K, P54A, Y55S, D92S
modifications: DM1 attached through SMCC linker; attachment residues and load not stated
notes: SMCC-DM1 conjugate of huCD37-51
EC50 of in vitro cytotoxicity, WST-8 assay, Daudi cells (human CD37 [1]): 0.2 nM
EC50 of in vitro cytotoxicity, WST-8 assay, Granta-519 cells (human CD37 [1]): 0.25 nM
Kd (human CD37 [2]): 1.6 nM

B3: huCD37-3-PEG4-mal-DM1 (antibody, human IgG1, kappa, V domains shown)
VH: QVQVQESGPGLVAPSQTLSITCTVSGFSLTTSGVSWVRQPPGKGLEWLGVIWGDGSTNYHPSLKSRLSIKKDHSKSQVFLKLNSLTAADTATYYCAKGGYSLAHWGQGTLVTVSS
VL: DIQMTQSPSSLSVSVGERVTITCRASENIRSNLAWYQQKPGKSPKLLVNVATNLADGVPSRFSGSGSGTDYSLKINSLQPEDFGTYYCQHYWGTTWTFGQGTKLEIKR
modifications: DM1 attached through PEG4-mal linker; attachment residues not stated; 3.5-4 maytansinoid molecules per antibody
notes: heavy chain version as for huCD37-3, see its note
EC50 of in vitro cytotoxicity, BJAB cells (human CD37 [1]): 0.01 nM
EC50 of in vitro cytotoxicity, Daudi cells (human CD37 [1]): 0.018 nM
EC50 of in vitro cytotoxicity, Granta-519 cells (human CD37 [1]): 0.012 nM
EC50 of in vitro cytotoxicity, Namalwa cells (human CD37 [1]): 0.024 nM
EC50 of in vitro cytotoxicity, Raji cells (human CD37 [1]): 0.045 nM
EC50 of in vitro cytotoxicity, Raji-VCR cells (human CD37 [1]): 0.037 nM
EC50 of in vitro cytotoxicity, Ramos cells (human CD37 [1]): 0.069 nM
EC50 of in vitro cytotoxicity, SU-DHL-4 cells (human CD37 [1]): 0.024 nM
Kd (human CD37 [2]): 0.35 nM

B4: huCD37-56-SMCC-DM1 (antibody, human IgG1, kappa, V domains shown)
VH: QVQLQESGPGLVKPSQSLSLTCTVSGYSITSGFAWHWIRQFPGKGLEWMGYIHYSGGTNYNPSLKSRVSITRDTSKNQFFLQLNSVTAADTATYYCARGYYGFGAWFAYWGQGTLVPVSA
VL: DIVLTQSPAFMSASPGEKVTMTCSASSSVTYMHWYQQKPDQSPKRWIYDTSNLASGVPSRFSGGGSGTDYSLTISSMEAEDAATYYCQQWISDPPTFGQGTKLEIKR
modifications: DM1 attached through SMCC linker; attachment residues and load not stated
notes: SMCC-DM1 conjugate of huCD37-56
EC50 of in vitro cytotoxicity, WST-8 assay, Daudi cells (human CD37 [1]): 0.31 nM
Kd (human CD37 [2]): 0.34 nM

B5: huCD37-50 (antibody, human IgG1, kappa, V domains shown)
VH: B1 VH
VL: B1 VL
notes: Resurfaced (humanized) antibody
Kd (human CD37 [3]): 0.2 nM
Kd (macaque CD37 [4]): 1.8 nM
Kd (human CD37 [2]): 0.43 nM and 0.68 nM

B6: huCD37-57 (antibody, human IgG1, kappa, V domains shown)
VH: B1 VH with H41F, N44K, K45G, H78Q
VL: B1 VL with K44R, P54A, Y55S
notes: Humanized antibody
Kd (macaque CD37 [4]): 2 nM
Kd (human CD37 [2]): 0.3 nM

B7: huCD37-57-SMCC-DM1 (antibody, human IgG1, kappa, V domains shown)
VH: B1 VH with H41F, N44K, K45G, H78Q
VL: B1 VL with K44R, P54A, Y55S
modifications: DM1 attached through SMCC linker; attachment residues and load not stated
notes: SMCC-DM1 conjugate of huCD37-57
EC50 of in vitro cytotoxicity, WST-8 assay, Daudi cells (human CD37 [1]): 0.35 nM
Kd (human CD37 [2]): 0.34 nM

B8: huCD37-51 (antibody, human IgG1, kappa, V domains shown)
VH: B2 VH
VL: B1 VL with N52K, P54A, Y55S, D92S
notes: Humanized antibody
Kd (human CD37 [3]): 0.8 nM
Kd (macaque CD37 [4]): 14 nM
Kd (human CD37 [2]): 2 nM

B9: huCD37-56 (antibody, human IgG1, kappa, V domains shown)
VH: B4 VH
VL: B4 VL
notes: Humanized antibody
Kd (human CD37 [3]): 0.2 nM
Kd (macaque CD37 [4]): 5 nM
Kd (human CD37 [2]): 0.3 nM

B10: huCD37-50-PEG4-mal-DM1 (antibody, human IgG1, kappa, V domains shown)
VH: B1 VH
VL: B1 VL
modifications: DM1 attached through PEG4-mal linker; attachment residues and load not stated
notes: PEG4-mal-DM1 conjugate of huCD37-50
Kd (human CD37 [2]): 1.1 nM

B11: muCD37-38 (antibody, mouse IgG1, kappa, V domains shown)
VH: DVQLQESGPDLVKPSQSLSLTCTVTGYSITSGFGWHWIRQFPGNKLEWMAYILYSGGTDYNPSLKSRISITRDTSKNQFFLRLSSVTTEDTATYYCARGYYGYGAWFVYWGQGTLVTVSA
VL: B4 VL with D1Q, F10I, P39S, D40G, Q41T, N52K, S59A, D69S, D93N, Q99G
notes: Murine hybridoma antibody
Kd (human CD37 [3]): 0.4 nM
binding result (hCD37-M1): binds
binding result (macaque CD37 [5]): binds
binding result (hCD37-M45): no binding (tested: 1.5 µg/mL)
binding result (hCD37-M3): binds
